Holding throughout (assay): steady-state kinetics (KM), o-phthaladehyde assay; HPLC/MS
What all share (format): biochemical, Arthrobacter citreus

Substrate in series [1]: C[C@H](CCC(=O)NCC(=O)O)[C@H]1CC[C@H]2[C@@H]3CC[C@@H]4C[C@H](O)CC[C@]4(C)[C@H]3C[C@H](O)[C@]12C
Substrate in series [2]: C[C@H](CCC(=O)NCC(=O)O)[C@H]1CC[C@H]2[C@@H]3[C@H](O)C[C@@H]4C[C@H](O)CC[C@]4(C)[C@H]3C[C@H](O)[C@]12C
Substrate in series [3]: C[C@H](CCC(=O)NCCS(=O)(=O)O)[C@H]1CC[C@H]2[C@@H]3CC[C@@H]4C[C@H](O)CC[C@]4(C)[C@H]3C[C@H](O)[C@]12C

One may read the Km as the substrate concentration at which the rate is half of its maximum. What is called kcat is the maximal rate divided by the concentration of active sites. What is called kcat/Km is the turnover number divided by the Michaelis constant.

B1: bile salt hydrolase from Arthrobacter citreus EINP1 (BSHAc) (Arthrobacter citreus) (protein)
chain: CTGIRYSDGSGNLYLARNLDWTSDFGERVVVTPTGYTTKSPFGAVPAIRHAVIGMGIVQEDTPLYFDCGNDAGLAVAGLNFPGYAQYATEAVDGATNVAAFEFPLWVASQFASVDEVEAALADVVIVDRPINDKYPSSLLHWIIGDSKRAIVVEYTSDGLHVFDDDVDVLANQPGFGWHHENLRNYLNASPDFPEKIVLNRADLVPFGSGSLMRGIPGDYYSPSRFVRAAYVHAHYPGKSTEEENVSRAFHTLQQVAMVDGSAAMGSGEFEKTTYTGLFSSRTMTYYWNTYEDPAVRSVAMADHAADGTELVVV
notes: C-terminally hexahistidine-tagged recombinant BSHAc; NCBI WP_342023006.1
Turning to B1, in series [1], the Km is 380 µM, the kcat came to 1630 ± 40 s⁻¹ and the kcat/Km came out at 4.3e+06 ± 400000 M⁻¹ s⁻¹. Besides, in series [2], the Km turned out to be 1700 µM, the kcat amounted to 1500 ± 50 s⁻¹ and the kcat/Km is 880000 ± 10000 M⁻¹ s⁻¹. Further, in series [3], the Km is 740 µM, the kcat was found to be 342 ± 6 s⁻¹ and the kcat/Km came to 460000 ± 50000 M⁻¹ s⁻¹.

Source of the values: article PMC11736000, “Structural and functional analysis of a bile salt hydrolase from the bison microbiome” (The Journal of Biological Chemistry, 2024).
